Data on one molecule can be found in EP2103936A1 (Institut Pasteur, dated 2009).

“And” between values parts separate entries of the source, which are not always exact repeats. Equal entries are not always repeated.

The assay concerns the target maltose binding protein MalE from E. coli (Escherichia coli, UniProt P0AEX9 27-396 = MBP).

B1: DarpOff7(wt) (designed binder)
chain: MRGSHHHHHHGSDLGRKLLEAARAGQDDEVRILMANGADVNAADNTGTTPLHLAAYSGHLEIVEVLLKHGADVDASDVFGYTPLHLAAYWGHLEIVEVLLKNGADVNAMDSDGMTPLHLAAKWGYLEIVEVLLKHGADVNAQDKFGKTAFDISIDNGNEDLAEILQKLN
On to B1, for which the Kd is 11 nM and 5.6 nM.

As a reminder, the Kd is the concentration at which binding is half-saturated.
